From US11939397B2, “ENTPD2 antibodies, combination therapies, and methods of using the antibodies and combination therapies” (Novartis AG, priority 2018, dated 2024)

How the values were obtained:
B16LM3 tumor = test: Syngeneic B16LM3 tumor model, survival; assay type: in vivo, C57BL/6 mice; details: mAb13 15 mg/kg in combination with anti-PD-1 Ab 10 mg/kg i.p., days 1, 5, 8, 12, 15; relative to No Treatment, Isotype Control or anti-PD-1 Ab
Description: B16LM3 model was established in female C57BL/6 mice by subcutaneous injection of 0.5×10^6 cells into the right flank of each mouse. The day after implant mice were randomized into treatment groups (n=10 per group). Mice received treatments of either anti-mouse ENTPD2 mAb13 or a non-specific mIgG2a isotype control (clone MOPC-173, BioLegend, San Diego, CA) at a final dose 15 mg/kg on Day 1, 5, 8, 12, 15.
Anti-PD-1 Ab (clone RMP1-14 Bio X Cell, West Lebanon, NH) or non-specific rIgG2a isotype control (clone RTK2758, BioLegend, San Diego, CA) were delivered i.p. at a final dose of 10 mg/kg on days 1, 5, 8, 12, 15. All doses were adjusted to individual mouse body weights.

cyno ENTPD2 = test: FACS binding to cyno ENTPD2 expressing cells; set-up: species or system cynomolgus monkey
Sequence of cyno ENTPD2 (as listed by the source): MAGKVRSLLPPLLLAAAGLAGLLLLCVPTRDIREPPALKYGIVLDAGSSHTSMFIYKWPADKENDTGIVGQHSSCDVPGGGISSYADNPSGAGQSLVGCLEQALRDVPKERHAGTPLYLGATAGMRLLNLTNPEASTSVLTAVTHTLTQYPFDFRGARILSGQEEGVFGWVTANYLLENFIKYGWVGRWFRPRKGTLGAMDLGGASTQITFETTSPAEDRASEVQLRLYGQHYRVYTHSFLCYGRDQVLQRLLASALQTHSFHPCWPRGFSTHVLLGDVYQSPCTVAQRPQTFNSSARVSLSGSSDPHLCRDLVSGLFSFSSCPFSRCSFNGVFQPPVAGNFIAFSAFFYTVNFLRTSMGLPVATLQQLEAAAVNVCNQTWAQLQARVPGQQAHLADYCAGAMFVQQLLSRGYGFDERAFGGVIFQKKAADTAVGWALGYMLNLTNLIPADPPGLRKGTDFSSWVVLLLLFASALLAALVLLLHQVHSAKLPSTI
Description: FACS screening: Specific binding of candidate antibodies to endogenously expressed ENTPD2 was assessed by flow cytometry. Cells were rinsed thoroughly with 1×PBS and treated with Accutase (Millipore #SCR005) to lift from growth plates and resuspended at approximately 1×10^5 cells/90 μL in 1×FACS buffer (2% FBS+0.1% NaN3 in PBS). In a 96-well U-bottom plate, 10 μL of 10× antibody solution in FACS buffer was pre-seeded and 90 μL of cell suspension was added. Cell were incubated for 30 minutes at 4° C., washed 1× with cold PBS and resuspended in 100 μL of 1:500 secondary antibody 1×FACS buffer (Allophycocyanin conjugated F(ab′)2 goat anti-human IgG, Fcγ specific; Jackson Immunoresearch, Cat #109-136-098). After additional incubation for 15 min at 4° C., cells were washed twice with PBS and resuspended in 100 μL of 1×FACS buffer with 4 μg/mL propidium iodide (Life Technologies, Cat #P3566). Geometric mean fluorescence intensity was calculated on live single cells using FlowJo software.

mouse ENTPD2 = target: T1, mouse ENTPD2 (Mus musculus, UniProt O55026); test: Mouse ENTPD2 NIH/3T3 cell-based functional assay
T1 construct: expressed in transfected cells
T1 sequence (O55026 1-495): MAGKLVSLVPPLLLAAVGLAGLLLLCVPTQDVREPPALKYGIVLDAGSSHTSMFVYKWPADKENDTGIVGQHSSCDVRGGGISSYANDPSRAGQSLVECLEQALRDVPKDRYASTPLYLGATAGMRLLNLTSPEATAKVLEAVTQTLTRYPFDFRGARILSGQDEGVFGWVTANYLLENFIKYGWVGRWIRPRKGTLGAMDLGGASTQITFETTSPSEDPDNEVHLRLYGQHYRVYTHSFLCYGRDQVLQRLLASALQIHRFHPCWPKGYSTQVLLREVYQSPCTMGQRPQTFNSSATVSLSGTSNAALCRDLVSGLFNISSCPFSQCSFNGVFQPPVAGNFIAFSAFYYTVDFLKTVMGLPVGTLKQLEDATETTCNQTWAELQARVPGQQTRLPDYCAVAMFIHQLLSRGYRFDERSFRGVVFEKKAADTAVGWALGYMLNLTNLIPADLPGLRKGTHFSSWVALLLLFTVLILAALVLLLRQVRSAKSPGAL
From the text: Biochemical and cell-based functional assays were developed in-house to understand functional impact of anti-ENTPD2 Abs against purified extracellular domain of ENTPD2 (residues 29-462), as well as against the fully intact protein in the context of the native cell-based conformation. ENTPD2 hydrolyzes ATP to ADP, which can subsequently be detected using the HTRF Transcreener ADP2 TR-FRET Red Assay (BellBrook Labs, Madison, WI) where ENTPD2-produced ADP would compete with the ADP Tracer for binding to the anti-ADP-Tb antibody. The resulting signal is inversely proportional to the concentration of ADP in the sample.
To establish cell-based functional assays, human/cyno/mouse ENTPD2-engineered NIH/3T3 cells or RKO (ATCC, Manassa VA) colorectal cancer cells with endogenous ENTPD2 expression were plated overnight at 150, 200 and 250 cells per well for NIH/3T3 mouse, cyno and human ENTPD2 lines, respectively, or 1000 cells per well for RKO in 384-well tissue culture plate, in 30 μl per well (Perkin Elmer, Waltham, MA). […] ADP production was detected with the Transcreener ADP2 TR-FRET Red Assay (BellBrook Labs, Madison, WI) with a final concentration of 4 nM ADP2 antibody and 13.4 nM of ADP Tracer in wells (4× solution was prepared and 5 μL of “Detection Reagent Mix” was added to the quenched conditioned media). […]

B1: mAb13: anti-mouse ENTPD2 monoclonal antibody, VH SEQ ID NO: 191, VL SEQ ID NO: 202 (antibody, V domains shown)
VH: QVQLVQSGAELKQPGQSVKISCKASGYTFTHYGMNWVKQAPGQGLKWMGWINTDTGNPTYADDFKGRFVFSLDTSVSTAYLQISNLKNEDTATYYCVRYGTLYSGYGFFFDSWGQGTLVTVSS
VL: DIMMTQSPSSLSVSAGEKATITCKSSQSLFNSNTNKNYLNWYLQKPGQSPKLLFYYASTRHTGVPDRFIGSGSGTDFTLTITSVQDEDLADYYCQQWYSYPWTFGPGTKLEIK
B16LM3 tumor
  mouse survival: significantly extended mouse survival
Cyno ENTPD2
  binding to cyno ENTPD2: no binding
Mouse ENTPD2; 100 nM antibody, mouse ENTPD2 NIH/3T3 cells
  % Inhibition at 100 nM (±Std Err): 44 ± 7.3%
Mouse ENTPD2; NIH3T3-mouse ENTPD2 engineered cell line
  maximum target inhibition (mouse ENTPD2 inhibition): 44%
